Test results published in paper PMC7096399.

Assays:
[1] = biological target: His6-tagged FGF2 (Fibroblast Growth Factor 2, 18 kDa isoform), wild type, P09038-2; test: AlphaScreen; conditions: His-FGF2 and GST-α1-subCD3 variants cross-titrated from 500 to 8 nM in PBS, 0.1% (w per v) BSA, 0.05% (w per v) Tween 20; selected concentration pairs …; parent: est. 100; read off a plot
[2] = biological target: α1-subCD3 as used in cross-linking and NMR experiments (migrates at 27 kDa) (human) (UniProt P05023); test: cross-linking; BMOE (1:1 to protein) or DSG (4:1) at 25 °C in HK buffer (25 mM Hepes pH 7.4, 150 mM KCl); single proteins 10 µM, mixtures 20 µM total at ratios 1:1, 1:2, 2:1; SDS-PAGE with Coomassie staining or western blot

| percent of parent [1] [%] | stoichiometry N [2] | Substance |
| --- | --- | --- |
| 100 | – | GST-α1-subCD3, small sub-domain of loop 3 of the cytoplasmic domain of α1 (from UniProt P05023) K524E; E525R |
| 100 | – | GST-α1-subCD3, small sub-domain of loop 3 of the cytoplasmic domain of α1 (from UniProt P05023) K524M; E525Q |
| 60 | – | GST-α1-subCD3, small sub-domain of loop 3 of the cytoplasmic domain of α1, P05023 D560N |
| 110 | – | GST-α1-subCD3, small sub-domain of loop 3 of the cytoplasmic domain of α1, P05023 K524M; E525Q; E498Q |
| – | 1 | His6-tagged FGF2 (Fibroblast Growth Factor 2, 18 kDa isoform), wild type (from UniProt P09038-2 1-155) (natural protein) |
